Values joined by “and” are separate entries in the source; they are usually repeats but may differ in a detail not shown here. Identical values can stand only once.
Columns and labels:
Conditions in all cases: remark: other sources report otherwise
TGF-β2, P61812 [1] = molecular target: T1, TGF-β2, P61812; experiment: indirect ELISA; […]
T1 chain: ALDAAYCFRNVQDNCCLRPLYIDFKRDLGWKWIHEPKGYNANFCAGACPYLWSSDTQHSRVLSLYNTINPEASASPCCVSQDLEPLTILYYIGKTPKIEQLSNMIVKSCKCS

TGF-β2, P61812 [2] = molecular target: T1, TGF-β2, P61812; experiment: indirect ELISA; 0 (blank)
TGF-β2, P61812 [3] = molecular target: T1, TGF-β2, P61812; experiment: indirect ELISA, TGF-β2 coated
TGF-β2, P61812 [4] = molecular target: T1, TGF-β2, P61812; experiment: indirect ELISA; […] diluted 1:3
TGF-β2, P61812 [5] = molecular target: T1, TGF-β2, P61812; experiment: indirect ELISA; […] diluted 1:9
TGF-β2, P61812 [6] = molecular target: T1, TGF-β2, P61812; experiment: indirect ELISA; […] diluted 1:27
TGF-β2, P61812 [7] = molecular target: T1, TGF-β2, P61812; experiment: indirect ELISA; […] diluted 1:81
TGF-β2, P61812 [8] = molecular target: T1, TGF-β2, P61812; experiment: indirect ELISA; […] diluted 1:243
TGF-β2, P61812 [9] = molecular target: T1, TGF-β2, P61812; experiment: indirect ELISA; […] diluted 1:729

B1: TGF-βRII-mFc, P37173 24-159 (Fc fusion, UniProt P37173 24-159, looked up, not shown: a dimerising Fc or GST)
chain: IPPHVQKSVNNDMIVTDNNGAVKFPQLCKFCDVRFSTCDNQKSCMSNCSITSICEKPQEVCVAVWRKNDENITLETVCHDPKLPYHDFILEDAASPKCIMKEKKKPGETFFMCSCSSDECNDNIIFSEEYNTSNPD
For B1, the OD450 (TGF-β2, P61812 [1]) was 1.46 OD and 1.44 OD, the OD450 (TGF-β2, P61812 [2]) was 0.176 OD and 0.16 OD and the EC50 (TGF-β2, P61812 [3]) was 1.03 nM. For the same binder, the OD450 (TGF-β2, P61812 [4]) was 1.34 OD and 1.32 OD, the OD450 (TGF-β2, P61812 [5]) was 0.908 OD and 0.925 OD and the OD450 (TGF-β2, P61812 [6]) was 0.432 OD and 0.462 OD. The OD450 (TGF-β2, P61812 [7]) was 0.253 OD and 0.211 OD, the OD450 (TGF-β2, P61812 [8]) was 0.202 OD and 0.158 OD and the OD450 (TGF-β2, P61812 [9]) was 0.184 OD and 0.152 OD.

— patent EP4671269A1
